Assay results: PMC3618327, “Genetic and Biochemical Characterization of the MinC-FtsZ Interaction in Bacillus subtilis” (PLoS ONE, 2013)

B1: His6-FtsZ, wild-type Bacillus subtilis FtsZ (natural protein, B. subtilis, UniProt P17865 1-382, looked up)
chain: MLEFETNIDGLASIKVIGVGGGGNNAVNRMIENEVQGVEYIAVNTDAQALNLSKAEVKMQIGAKLTRGLGAGANPEVGKKAAEESKEQIEEALKGADMVFVTAGMGGGTGTGAAPVIAQIAKDLGALTVGVVTRPFTFEGRKRQLQAAGGISAMKEAVDTLIVIPNDRILEIVDKNTPMLEAFREADNVLRQGVQGISDLIATPGLINLDFADVKTIMSNKGSALMGIGIATGENRAAEAAKKAISSPLLEAAIDGAQGVLMNITGGTNLSLYEVQEAADIVASASDQDVNMIFGSVINENLKDEIVVTVIATGFIEQEKDVTKPQRPSLNQSIKTHNQSVPKREPKREEPQQQNTVSRHTSQPADDTLDIPTFLRNRNKRG
notes: FtsZ of Bacillus subtilis, the ftsZ gene cloned into pET28a; also called WT; FtsZ^WT; source: E. coli BL21(DE3)-RIL, purified (two-step ammonium sulfate and GTP+Ca2+ precipitation); not shown: His6, N-terminal, kept

Key:
[1] = molecular target: B1; assay: other fluorescence titration; intrinsic Trp fluorescence of 1 µM MinC Y44W with 0.5-3 µM FtsZ in solution; Tris/HCl 20 mM, KCl 100 mM, EDTA 5 mM, pH 7.5; excitation 295 nm, emission 320-360 nm; the interaction was inhibited by salt (1 M KCl); conditions: both partners purified
[2] = molecular target: T1, MinC-His6, wild-type Bacillus subtilis MinC (B. subtilis, UniProt Q01463 1-226); assay: cell-based or functional assay
T1 sequence (looked up): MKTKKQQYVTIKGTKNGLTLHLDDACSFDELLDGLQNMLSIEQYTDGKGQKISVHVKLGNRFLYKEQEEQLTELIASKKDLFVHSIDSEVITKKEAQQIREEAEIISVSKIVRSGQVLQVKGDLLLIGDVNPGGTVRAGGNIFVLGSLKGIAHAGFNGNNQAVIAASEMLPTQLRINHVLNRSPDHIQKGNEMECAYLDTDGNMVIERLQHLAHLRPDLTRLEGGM

[3] = molecular target: the molecule itself; assay: sedimentation of polymers; 7 µM FtsZ in Mes/NaOH 50 mM, MgCl2 10 mM, KCl 133 mM, DEAE-dextran 0.6 mg/mL, pH 6.5, GTP 2 mM, room temperature, 100.000 rpm 15 min; pellet and supernatant on SDS-PAGE

Binder | Kd [1] [nM] | light scattering signal of FtsZ polymerization with MinC (7 µM FtsZ, 20 µM MinC) relative to the signal in the absence of MinC [2] [%] | binding result [3]
MinC Y44W (tryptophan mutant of Bacillus subtilis MinC) (natural protein, B. subtilis, UniProt Q01463 1-226, looked up, MinC of Bacillus subtilis with tryptophan at position 44 of the N-terminal domain; The methods name both His6-MinC (pET28a) and MinC-His6 (pET24b); also called tryptophan mutant MinC Y44W) MKTKKQQYVTIKGTKNGLTLHLDDACSFDELLDGLQNMLSIEQWTDGKGQKISVHVKLGNRFLYKEQEEQLTELIASKKDLFVHSIDSEVITKKEAQQIREEAEIISVSKIVRSGQVLQVKGDLLLIGDVNPGGTVRAGGNIFVLGSLKGIAHAGFNGNNQAVIAASEMLPTQLRINHVLNRSPDHIQKGNEMECAYLDTDGNMVIERLQHLAHLRPDLTRLEGGM | ~1000 |  | 
His6-FtsZ R376T (natural protein, B. subtilis, UniProt P17865 1-382, looked up, FtsZ of Bacillus subtilis, mutant in the C-terminal peptide (CTP); source: E. coli BL21(DE3)-RIL, purified (two-step ammonium sulfate and GTP+Ca2+ precipitation); not shown: His6, N-terminal, kept) MLEFETNIDGLASIKVIGVGGGGNNAVNRMIENEVQGVEYIAVNTDAQALNLSKAEVKMQIGAKLTRGLGAGANPEVGKKAAEESKEQIEEALKGADMVFVTAGMGGGTGTGAAPVIAQIAKDLGALTVGVVTRPFTFEGRKRQLQAAGGISAMKEAVDTLIVIPNDRILEIVDKNTPMLEAFREADNVLRQGVQGISDLIATPGLINLDFADVKTIMSNKGSALMGIGIATGENRAAEAAKKAISSPLLEAAIDGAQGVLMNITGGTNLSLYEVQEAADIVASASDQDVNMIFGSVINENLKDEIVVTVIATGFIEQEKDVTKPQRPSLNQSIKTHNQSVPKREPKREEPQQQNTVSRHTSQPADDTLDIPTFLTNRNKRG |  | 70 | binds
His6-FtsZ D287V (natural protein, B. subtilis, UniProt P17865 1-382, looked up, FtsZ of Bacillus subtilis, mutant from the error-prone PCR library; source: E. coli BL21(DE3)-RIL, purified (two-step ammonium sulfate and GTP+Ca2+ precipitation); not shown: His6, N-terminal, kept) MLEFETNIDGLASIKVIGVGGGGNNAVNRMIENEVQGVEYIAVNTDAQALNLSKAEVKMQIGAKLTRGLGAGANPEVGKKAAEESKEQIEEALKGADMVFVTAGMGGGTGTGAAPVIAQIAKDLGALTVGVVTRPFTFEGRKRQLQAAGGISAMKEAVDTLIVIPNDRILEIVDKNTPMLEAFREADNVLRQGVQGISDLIATPGLINLDFADVKTIMSNKGSALMGIGIATGENRAAEAAKKAISSPLLEAAIDGAQGVLMNITGGTNLSLYEVQEAADIVASASVQDVNMIFGSVINENLKDEIVVTVIATGFIEQEKDVTKPQRPSLNQSIKTHNQSVPKREPKREEPQQQNTVSRHTSQPADDTLDIPTFLRNRNKRG |  |  | binds
His6-FtsZ T111A (natural protein, B. subtilis, UniProt P17865 1-382, looked up, FtsZ of Bacillus subtilis, promiscuous mutant in the N-terminal subdomain; source: E. coli BL21(DE3)-RIL, purified (two-step ammonium sulfate and GTP+Ca2+ precipitation); not shown: His6, N-terminal, kept) MLEFETNIDGLASIKVIGVGGGGNNAVNRMIENEVQGVEYIAVNTDAQALNLSKAEVKMQIGAKLTRGLGAGANPEVGKKAAEESKEQIEEALKGADMVFVTAGMGGGTGAGAAPVIAQIAKDLGALTVGVVTRPFTFEGRKRQLQAAGGISAMKEAVDTLIVIPNDRILEIVDKNTPMLEAFREADNVLRQGVQGISDLIATPGLINLDFADVKTIMSNKGSALMGIGIATGENRAAEAAKKAISSPLLEAAIDGAQGVLMNITGGTNLSLYEVQEAADIVASASDQDVNMIFGSVINENLKDEIVVTVIATGFIEQEKDVTKPQRPSLNQSIKTHNQSVPKREPKREEPQQQNTVSRHTSQPADDTLDIPTFLRNRNKRG |  |  | binds
His6-FtsZ K243R (natural protein, B. subtilis, UniProt P17865 1-382, looked up, FtsZ of Bacillus subtilis, mutant from the error-prone PCR library; source: E. coli BL21(DE3)-RIL, purified (two-step ammonium sulfate and GTP+Ca2+ precipitation); not shown: His6, N-terminal, kept) MLEFETNIDGLASIKVIGVGGGGNNAVNRMIENEVQGVEYIAVNTDAQALNLSKAEVKMQIGAKLTRGLGAGANPEVGKKAAEESKEQIEEALKGADMVFVTAGMGGGTGTGAAPVIAQIAKDLGALTVGVVTRPFTFEGRKRQLQAAGGISAMKEAVDTLIVIPNDRILEIVDKNTPMLEAFREADNVLRQGVQGISDLIATPGLINLDFADVKTIMSNKGSALMGIGIATGENRAAEAAKRAISSPLLEAAIDGAQGVLMNITGGTNLSLYEVQEAADIVASASDQDVNMIFGSVINENLKDEIVVTVIATGFIEQEKDVTKPQRPSLNQSIKTHNQSVPKREPKREEPQQQNTVSRHTSQPADDTLDIPTFLRNRNKRG |  |  | binds
B1 |  |  | binds
